Data from paper PMC4786922, “Protein Delivery of an Artificial Transcription Factor Restores Widespread Ube3a Expression in an Angelman Syndrome Mouse Brain”.

Biological target: TAT-S1 (MBP-TAT-mCherry-HA-NLS-S1-KRAB) (artificial (designed))
Assay: EMSA; EMSA: ZBA buffer (composition not given), 0.05% NP-40, 0.1 mg/ml BSA, 10% glycerol, 35-75 pM target, 1.5 h at room temperature; pH not given
Conditions: protein: recombinant, tags: N-terminal MBP, TAT(48-57), SV40 NLS, C-terminal KRAB, label: 5'-biotin on strand 1, blunt

B1: S1 target site EMSA probe (dsDNA)
DNA 1: CCTCTTCGCTATTACGCCAGCCATGCGTAGGGAGCCGCGGAACGTTCGATCGTACTCGAGTCAGGGTG
DNA 2: CACCCTGACTCGAGTACGATCGAACGTTCCGCGGCTCCCTACGCATGGCTGGCGTAATAGCGAAGAGG
Work on B1 yielded a Kd of 8 ± 1.5 nM.
